Results: PMC3517355

T1: CCHF Altamura Gn 611 peptide (Crimean-Congo hemorrhagic fever virus, UniProt Q8JSZ3)
T1 chain: TQEGRGHVKLSRGSE

B1: Gn6-5F (ssDNA)
DNA: ATACGGGAGCCAACACCACGCCTTGTCTATTCTCTTAGTTTCCTGCTACTCCACAGAGCAGGTGTGACGGAT
B2: Gn6-30F (ssDNA)
DNA: ATACGGGAGCCAACACCATCCCACCGAATATCCGCTTTCCTCGTCCTCCTTTCAGAGCAGGTGTGACGGAT
B3: Gn6-17F (ssDNA)
DNA: ATACGGGAGCCAACACCAAACTAGACAACCGCCCTTATACACACTGTACCAGTAGAGCAGGTGTGACGGAT
B4: Gn6-7bR (ssDNA)
DNA: ATCCGTCACACCTGCTCTCACATACTGGTCAGTCTCTATCGAGGCGGGCATTGGTGTTGGCTCCCGTAT
B5: Gn6-16cR (ssDNA)
DNA: ATCCGTCACACCTGCTCTGTCGGGATGCGCCGGGCCGCCATGATTAGTGTGCTCTGGTGTTGGCTCCCGTAT
B6: Gn6-18F (ssDNA)
DNA: ATACGGGAGCCAACACCATACGCACCCGCATTCGTTAGTGTGTACAGTATGTCCAGAGCAGGTGTGACGGAT
B7: Gn6-16cF (ssDNA)
DNA: ATACGGGAGCCAACACCAGAGCACACTAATCATGGCGGCCCGGCGCATCCCGACAGAGCAGGTGTGACGGAT
B8: Gn6-25R (ssDNA)
DNA: ATCCGTCACACCTGCTCTACAGTTAGAGCTTGCCGTATGCCTTTGTTAACATAATGGTGTTGGCTCCCGTAT
B9: Gn6-6R (ssDNA)
DNA: ATCCGTCACACCTGCTCTGCATATAAATTTTTAACAAGGGACTGGTAACTATCCTGGTGTTGGCTCCCGTAT
B10: Gn6-15R (ssDNA)
DNA: ATCCGTCACACCTGCTCTGGGCCAGGTAAGAAGATGCGAGCTGTGTAATACATGTGGTGTTGGCTCCCGTAT
B11: E7c-23/25R (ssDNA)
DNA: ATCCGTCACACCTGCTCTACAGTTAGAGCTTGCCGTATGCCTTTGTTAACATAATGGTGTTGGCTCCCGTAT
B12: E7b-1aF (ssDNA)
DNA: ATACGGGAGCCAACACCATAATTCAAGAGGATTCCTCAAAATATGAAGCTTCCAGAGCAGGTGTGACGGAT
B13: E7b-5R (ssDNA)
DNA: ATCCGTCACACCTGCTCTTGGGCATCAGCGGGCGATGCATGCGATAAATTAGTGTGGTGTTGGCTCCCGTAT
B14: E7b-1aR (ssDNA)
DNA: ATCCGTCACACCTGCTCTGGAAGCTTCATATTTTGAGGAATCCTCTTGAATTATGGTGTTGGCTCCCGTAT
B15: E7b-20/21R (ssDNA)
DNA: ATCCGTCACACCTGCTCTCGCTGAAGCAAGACATTATCGGGACATTGCCGTGATGGTGTTGGCTCCCGTAT
B16: E7b-8a/10/16-19/23-25R (ssDNA)
DNA: ATCCGTCACACCTGCTCTTGACACGCGTACGGGTCCGGACATGTCATAACGGACTGGTGTTGGCTCCCGTAT
B17: E7b-14R (ssDNA)
DNA: ATCCGTCACACCTGCTCTTGACGCGCGAACGGGTCCGGACACGTCATAACGGAATGGTGCTGGCTCCCGTAA
B18: E7b-1bR (ssDNA)
DNA: ATCCGTCACACCTGCTCTTTGACACGCGTACGGGTCCGGACATGTCATAACGGACTGGTGTTGGCTCCCGTAT
B19: E7b-3R (ssDNA)
DNA: ATCCGTCACACCTGCTCTAAAGGATCCTTCTTAGCATCACATTATGATAAGATATGGTGTTGGCTCCCGTAT
B20: E7b-6R (ssDNA)
DNA: ATCCGTCACACCTGCTCTTAACCTATTTGGGTCGCGTTCTCAAAATAACTTCTGTGGTGTTGGCTCCCGTAT
B21: E7b-1bF (ssDNA)
DNA: ATACGGGAGCCAACACCAGTCCGTTATGACATGTCCGGACCCGTACGCGTGTCAAAGAGCAGGTGTGACGGAT
B22: E7a-11R (ssDNA)
DNA: ATCCGTCACACCTGCTCTCGTGTGATATATATGGTAAGGGGGGTTAGTACTGCTGGTGTTGGCTCCCGTAT
B23: E7a-33F (ssDNA)
DNA: ATACGGGAGCCAACACCACACACAGAGCGCCATGGACTCAGTCAGATGTGATGTAGAGCAGGTGTGACGGAT
B24: E7a-29F (ssDNA)
DNA: ATACGGCAGCCAACACCACACACATAGCGCTTTGTATTCAGCCGGATGTGATGTAGAGCAGGTGTGACGGAT
B25: E7a-20R (ssDNA)
DNA: ATCCGTCACACCTGCTCTGGTTAAACGATATGGGGCCTGCCGTTATAACTGCGTGGTGTTGGCTCCCGTAT
B26: E7a-18F (ssDNA)
DNA: ATACGGGAGCCAACACCAACAGATGGATAAGGGGGAAACTGCCCATTCGGTTAGTAGAGCAGGTGTGACGGAT
B27: E7a-5R (ssDNA)
DNA: ATCCGTCACACCTGCTCTTGACACGCGTACGGGGTCCGGACATGTCATAACGGACTGGTGTTGGCTCCCGTAT
B28: E7a-8R (ssDNA)
DNA: ATCCGTCACACCTGCTCTCGCTGAAGCAAGACATTATCGGGACATTGCCGTGATGGTGTTGGCTCCCGTAT
B29: E7a-23F (ssDNA)
DNA: ATACGGGAGCCAACACCATGTCAGGACCTCCATCGCCCGGGCCCGCCGCCGCTGAGAGCAGGTGTGAC
B30: E7a-20F (ssDNA)
DNA: ATACGGGAGCCAACACCACGCAGTTATAACGGCAGGCCCCATATCGTTTAACCAGAGCAGGTGTGACGGAT
B31: E7a-33R (ssDNA)
DNA: ATCCGTCACACCTGCTCTACATCACATCTGACTGAGTCCATGGCGCTCTGTGTGTGGTGTTGGCTCCCGTAT

Target: T1, CCHF Altamura Gn 611 peptide
Experiment: ELASA; […] (0.5 M NaCl, 10 mM Tris-HCl, 1 mM MgCl2, pH 7.5-7.6), 1 h, RT (~25 C); […]
Conditions: label: 5'-biotin

In order of falling binding signal:
1. B8  1.94 A405
2. B7  1.9 A405
3. B6  1.86 A405
4. B3  1.82 A405
5. B1  1.75 A405
6. B2  1.75 A405
7. B4  1.69 A405
8. B5  1.67 A405
9. B9  1.64 A405
10. B10  1.63 A405

target: CCHF 11E7c peptide (Crimean-Congo hemorrhagic fever virus, UniProt Q8JSZ3); experiment: as above; conditions: label: 5'-biotin

B11 was tested, and the binding signal was 2.12 A405.

target: CCHF 11E7b peptide (Crimean-Congo hemorrhagic fever virus, UniProt Q8JSZ3); experiment: as above; conditions: label: 5'-biotin

In order of falling binding signal:
1. B18  2.07 A405
2. B14  2 A405
3. B16  2 A405
4. B19  1.94 A405
5. B17  1.9 A405
6. B21  1.88 A405
7. B13  1.86 A405
8. B20  1.86 A405
9. B12  1.83 A405
10. B15  1.78 A405

target: CCHF 11E7a peptide (Crimean-Congo hemorrhagic fever virus, UniProt Q8JSZ3); experiment: as above; conditions: label: 5'-biotin

In order of falling binding signal:
1. B29  2.23 A405
2. B31  2.12 A405
3. B26  2.08 A405
4. B27  2.08 A405
5. B22  2.07 A405
6. B23  2.07 A405
7. B24  2.06 A405
8. B25  2.04 A405
9. B28  2.04 A405
10. B30  2.02 A405
